# Assay results taken from patent publication US20140086829A1 (BIOREC S A, published 2014).
# T1: human GST-VEGF (human, UniProt P15692-9 27-147)
# T1 construct: also called GST-VEGF humano; not shown: GST fusion partner
# T1 sequence (looked up): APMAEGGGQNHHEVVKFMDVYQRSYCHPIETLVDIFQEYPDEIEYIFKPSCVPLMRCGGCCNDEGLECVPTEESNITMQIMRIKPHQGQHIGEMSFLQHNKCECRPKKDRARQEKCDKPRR
# B1: soluble scFv 2H1 antibody fragment (scFv, from another filing)
# scFv: QQVQLVQSGAEVKKPGESLKISCKGSGYSFTSYWIGWVRQMPGKGLEWMGIIYPGDSDTRYSPSFQGQVTISADKSISTAYLQWSSLKASDTAMYYCARLVVRDTEIWGQGTMVTVSSAPQAKSSGSGSESKVDQAVVTQEPSLTVSPGGTVTLTCASSIGAVTSGNYPNWFQQRPGQPPRALIYSTSNKHSWTPARFSGSLLGGKAALTLSGAQPEDEAEYYCLLSYSGARPVFGGGTKLTVLGAAAGSEQKLISEEDLNSHHHHHH
# How the values were obtained:
# [1] = biological target: T1, human GST-VEGF; assay: competition ELISA on coated GST-VEGF; soluble scFv 2H1 titrated; competitor phage scFv L3
# [2] = biological target: T1, human GST-VEGF; assay: competition ELISA on coated GST-VEGF; soluble scFv 2H1 titrated; competitor phage scFv 3E3
# [3] = biological target: T1, human GST-VEGF; assay: competition ELISA on coated GST-VEGF; soluble scFv 2H1 titrated; competitor phage scFv 3E2
# [4] = biological target: T1, human GST-VEGF; assay: competition ELISA on coated GST-VEGF; soluble scFv 2H1 titrated; competitor phage scFv L1
# [5] = biological target: T1, human GST-VEGF; assay: competition ELISA on coated GST-VEGF; soluble scFv 2H1 titrated; competitor phage scFv 1H2
# [6] = biological target: T1, human GST-VEGF; assay: competition ELISA on coated GST-VEGF; soluble scFv 2H1 titrated; competitor phage scFv L3H7
# [7] = biological target: T1, human GST-VEGF; assay: competition ELISA on coated GST-VEGF; soluble scFv 2H1 titrated; competitor phage scFv 4D8
# [8] = biological target: T1, human GST-VEGF; assay: competition ELISA on coated GST-VEGF; soluble scFv 2H1 titrated; competitor phage scFv 2D1O
# [9] = biological target: T1, human GST-VEGF; assay: competition ELISA on coated GST-VEGF; soluble scFv 2H1 titrated; competitor phage scFv L3H6
# [10] = biological target: T1, human GST-VEGF; assay: competition ELISA on coated GST-VEGF; soluble scFv 2H1 titrated; competitor phage scFv 1H2; remark: listed apart in the source
# [11] = biological target: T1, human GST-VEGF; assay: competition ELISA on coated GST-VEGF; soluble scFv 2H1 titrated; competitor phage scFv 3E4
# [12] = biological target: T1, human GST-VEGF; assay: competition ELISA on coated GST-VEGF; soluble scFv 2H1 titrated; competitor phage scFv 3H2
# [13] = biological target: T1, human GST-VEGF; assay: competition ELISA on coated GST-VEGF; soluble scFv 2H1 titrated; competitor phage scFv 2H8
# [14] = biological target: T1, human GST-VEGF; assay: competition ELISA on coated GST-VEGF; soluble scFv 2H1 titrated; competitor phage scFv 4F2
# [15] = biological target: T1, human GST-VEGF; assay: competition ELISA on coated GST-VEGF; soluble scFv 2H1 titrated; competitor phage scFv L3; remark: listed apart in the source
# [16] = biological target: T1, human GST-VEGF; assay: competition ELISA on coated GST-VEGF; soluble scFv 2H1 titrated; competitor phage scFv 3E9
# [17] = biological target: T1, human GST-VEGF; assay: competition ELISA on coated GST-VEGF; soluble scFv 2H1 titrated; competitor phage scFv 2A10
# [18] = biological target: T1, human GST-VEGF; assay: competition ELISA on coated GST-VEGF; soluble scFv 2H1 titrated; competitor phage scFv L3H5
# [19] = biological target: T1, human GST-VEGF; assay: competition ELISA on coated GST-VEGF; soluble scFv 2H1 titrated; competitor phage scFv 2H1 original
# [20] = biological target: T1, human GST-VEGF; assay: competition ELISA on coated GST-VEGF; soluble scFv 2H1 titrated; competitor phage scFv 3E3; remark: listed apart in the source
# [21] = biological target: T1, human GST-VEGF; assay: competition ELISA on coated GST-VEGF; soluble scFv 2H1 titrated; competitor phage scFv 4D8; remark: listed apart in the source
# [22] = biological target: T1, human GST-VEGF; assay: competition ELISA on coated GST-VEGF; soluble scFv 2H1 titrated; competitor phage scFv 1C9
# [23] = biological target: T1, human GST-VEGF; assay: competition ELISA on coated GST-VEGF; soluble scFv 2H1 titrated; competitor phage scFv 3F3
# [24] = biological target: T1, human GST-VEGF; assay: competition ELISA on coated GST-VEGF; soluble scFv 2H1 titrated; competitor phage scFv 3E12
# [25] = biological target: T1, human GST-VEGF; assay: competition ELISA on coated GST-VEGF; soluble scFv 2H1 titrated; competitor phage scFv 3C4
# [26] = biological target: T1, human GST-VEGF; assay: competition ELISA on coated GST-VEGF; soluble scFv 2H1 titrated; competitor phage scFv 1G4
# [27] = biological target: T1, human GST-VEGF; assay: competition ELISA on coated GST-VEGF; soluble scFv 2H1 titrated; competitor phage scFv 1H3
binder,measurement,setting,value
B1,IC50,[1],358 mg/L
same,IC50,[2],34.6 mg/L
same,IC50,[3],15.3 mg/L
same,IC50,[4],11.7 mg/L
same,IC50,[5],124 mg/L
same,IC50,[6],890 mg/L
same,IC50,[7],33 mg/L
same,IC50,[8],65.7 mg/L
same,IC50,[9],978 mg/L
same,IC50,[10],120 mg/L
same,IC50,[11],13.5 mg/L
same,IC50,[12],19.6 mg/L
same,IC50,[13],46.6 mg/L
same,IC50,[14],4.98 mg/L
same,IC50,[15],350 mg/L
same,IC50,[16],15 mg/L
same,IC50,[17],35.8 mg/L
same,IC50,[18],940 mg/L
same,IC50,[19],5.08 mg/L
same,IC50,[20],35.1 mg/L
same,IC50,[21],32 mg/L
same,IC50,[22],38.3 mg/L
same,IC50,[23],48.9 mg/L
same,IC50,[24],18.3 mg/L
same,IC50,[25],29 mg/L
same,IC50,[26],57.7 mg/L
same,IC50,[27],110 mg/L
